Common to all, as to test: Fc receptor binding, method not stated
Assay [1] has as its target CD16-V158 (FcγRIIIa) (human) (UniProt P08637).
Assay [2] deals with CD32-H131 (FcγRIIa) (human) (UniProt P12318).
The target of assay [3] is CD32-R131 (FcγRIIa) (human) (UniProt P12318).
The next assay has as its target CD64 (FcγRIa) (human) (UniProt P12314).
Chain of UniProt P12314 (P12314 16-288 limits assumed): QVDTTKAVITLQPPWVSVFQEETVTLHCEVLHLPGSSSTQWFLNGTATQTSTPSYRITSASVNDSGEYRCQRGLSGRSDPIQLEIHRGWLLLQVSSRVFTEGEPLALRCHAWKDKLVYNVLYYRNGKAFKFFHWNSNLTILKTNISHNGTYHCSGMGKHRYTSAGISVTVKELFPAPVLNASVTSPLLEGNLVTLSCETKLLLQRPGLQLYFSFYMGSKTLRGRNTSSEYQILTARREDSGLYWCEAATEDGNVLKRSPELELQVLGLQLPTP

Chain of UniProt P08637 (P08637 17-208 F176V limits assumed): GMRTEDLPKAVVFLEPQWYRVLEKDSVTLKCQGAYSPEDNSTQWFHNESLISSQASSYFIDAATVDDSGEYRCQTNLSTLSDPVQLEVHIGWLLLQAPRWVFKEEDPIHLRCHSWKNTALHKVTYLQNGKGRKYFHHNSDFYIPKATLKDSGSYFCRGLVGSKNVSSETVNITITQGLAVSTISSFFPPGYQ

Consider “IgG1f antibody (fucosylated, otherwise unmodified human IgG1f Fc region)”, for which the Kd in assay [1] is 97 nM; in assay [2] it was 530 nM; in assay [3] it was 960 nM; with CD64 (FcγRIa) (human), 0.2 nM.

Broadly, the Kd is the concentration at which binding is half-saturated. Higher therefore signals lower affinity.

The record behind these values is US20190382490A1.
